Measured values as given in patent publication US10577618B2, “Class of glyphosate resistance genes” (Dow AgroSciences LLC, priority 2012, dated 2020).
Residue numbers refer to the chain shown, from its start. Entries after “also recorded” stand apart in the source; their conditions may differ.

B1: DGT-28v1: Class IV EPSP synthase from Streptomyces sviceus ATCC29083, SEQ ID NO:1, native (protein, listed as Streptomyces sviceus)
chain: MRGMPALSLPGSKSITARALFLAAAADGVTTLVRPLRSDDTEGFAEGLVRLGYRVGRTPDTWQVDGRPQGPAVAEADVYCRDGATTARFLPTLAAAGHGTYRFDASPQMRRRPLLPLSRALRDLGVDLRHEEAEGHHPLTVRAAGVEGGEVTLDAGQSSQYLTALLLLGPLTRQGLRIRVTDLVSAPYVEITLAMMRAFGVEVAREGDVFVVPPGGYRATTYAIEPDASTASYFFAAAALTPGAEVTVPGLGTGALQGDLGFVDVLRRMGAEVSVGADATTVRGTGELRGLTANMRDISDTMPTLAAIAPFASAPVRIEDVANTRVKECDRLEACAENLRRLGVRVATGPDWIEIHPGPATGAQVTSYGDHRIVMSFAVTGLRVPGISFDDPGCVRKTFPGFHEAFAELRRGIGS
B2: DGT-32: Streptomyces Class IV EPSP synthase, GENBANK ZP_04696613, SEQ ID NO:68 (protein)
chain: DRWRVQGRPAGPAATEADVYCRDGATTARFLPTLAAAAASGTYRFDASAQMRRRPLAPLTRALTALGVDLRH
modifications: Streptomyces roseosporus NRRL 15998
B3: DGT-33: Streptomyces Class IV EPSP synthase, GENBANK NC_010572, SEQ ID NO:67 (protein)
chain: B2 chain with Q6E, A10D, T15P, E16D, A35V
modifications: Streptomyces griseus subsp. griseus NBRC 13350
B4: DGT-31: Streptomyces Class IV EPSP synthase, GENBANK YP_004922608.1, SEQ ID NO:145 (protein)
chain: MTVIDIPGSKSVTARALFLAAAADGTTTLLRPLHSDDTEGFTEGLTRLGYAVVREPDRWHIEGRPSGPAAADAEVHCRDGATTARFLPTLAAAAASGTYRFDASAQMRRRPLAPLTEALRTLGVDLRHDGAEGHHPLTIQASGVKGGGLTLDAGESSQYLTALLMLGPLTAEGLRIEVTELVSAPYVEITLAMMRGFGVEVVREGNTFTVPPGGYRATTYAIEPDASTASYFFAAAALTGREVTVPGLGTGALQGDLRFTEVLRRMDADVRTTSDSTTVRSDGRLAGLTVNMRDISDTMPTLAAIAPYASSPVRIEDVANTRVKECDRLEACAQNLRSMGITVRTGPDWIEIHPGTPRPTEIATHGDHRIVMSFAVAGLRTPGMSYDDPGCVRKTFPRFHEEFAAFVERSSAGE
modifications: Streptomyces pratensis ATCC 33331

Legend:
[1] = system: EPSP synthase (DGT enzymes); experiment: In vitro kinetic characterization of plant and bacterial DGT enzymes (Pi production, malachite green); format: biochemical; conditions: for Km: read-out: KM^PEP, Km for phosphoenolpyruvate; for decrease in catalytic efficiency: relative to DGT-28 v1
Experimental: Recombinant DGT proteins were overexpressed in Rosetta2™ (DE3) cells (Novagen™, Madison, Wis.) from the constructs described above. A single colony was used to inoculate 50 mL starter cultures of LB containing chloramphenicol (25 μg/mL) and kanamycin (50 μg/mL) which were cultivated overnight at 37° C. The overnight cultures were used to inoculate 1 L of LB containing chloramphenicol (25 μg/mL) and kanamycin (50 μg/mL). The cultures were grown at 37° C. to an O.D.600=0.6 then placed in an ice water bath for 10 minutes. Expression of the target proteins was achieved by addition of IPTG to a final concentration of 500 μM.
DGT enzymes were purified to homogeneity in one step via immobilized metal affinity chromatography (IMAC) using a 5 mL HisTrap FF crude column. The column was equilibrated in Buffer A and the sample was loaded in the same buffer. The column was then washed with 10 column volumes of Buffer A followed by elution in a 0-100% Buffer B (50 mM HEPES pH 7.5, 200 mM KCl, 2 mM DTT, 1 mM EDTA, 500 mM imidazole, and 5% glycerol) linear gradient over 25 column volumes. Fractions containing target protein, as judged by SDS-PAGE analysis, were concentrated to 2.5 mL using a Millipore ultracentrifugation device equipped with a 10 kDa molecular weight cut-off (MWCO). The purified DGT enzymes were buffer exchanged using PD-10 columns (GE Healthcare) into 50 mM HEPES pH 7.5, 150 mM KCl, 2 mM DTT, and 5% glycerol and subsequently concentrated ˜1 mL. Samples were typically diluted 1:50 and the UV-visible spectrum was recorded from 240-700 nm on a Cary50™ Bio UV-visible spectrophotometer. A theoretical extinction coefficient was then used to calculate the protein concentration based on the absorbance at 280 nm (ExPASy, Geneva, Switzerland).
Frozen pellets were resuspended in 20-30 mL buffer A (50 mM HEPES pH 7.5, 100 mM KCl, 1 mM EDTA, 5% glycerol, and 1 mM DTT) and 1 tablet of protease inhibitor (Roche Complete). Once the pellet was completely resolubilized 1 mg/mL of lysozyme was added and the sample was mixed at 4° C. for 15-20 minutes. Following the incubation with the lysozyme the sample was transferred to a 50 mL centrifuge tube and placed on ice. The sample was then sonicated for 1 minute intervals followed by 4 minutes of cooling. This step was repeated two more times for a total of three sonication cycles. Cell debris was removed by centrifugation at 16,500 rpm for 45 minutes and the supernatant was loaded into a 50 mL injection loop. The crude lysate was applied to an amylose column, washed for 7 column volumes with buffer A, and eluted in 100% buffer B (Buffer A and 10 mM maltose). Target protein was pooled and concentrated to 2.5 mL using a 30 kDa MWCO centricon. The purified protein was buffer exchanged into 50 mM HEPES pH 7.5, 100 mM KCl, and 5% glycerol using a PD-10 gel filtration column. Protein concentrations were determined via Bradford assay using BSA as a standard. The pure protein was frozen in liquid nitrogen and stored at −80° C.
The enzyme activities of wild-type (WT) and mutant DGTs were measured by inorganic phosphate (Pi) production in a modified procedure described by Lanzetta et al. (1979) Anal. Bioch. 100:95-7. Assays were performed in 96-well plate format in a total of 50 μL on a Spectra-Max 190 plate reader (Molecular Devices, Sunnyvale, Calif.). Typical assays contained 50 mM HEPES pH 7.5, 150 mM KCl, 2 mM DTT, and 1 mM S3P. […] Glyphosate was obtained from Sigma as the free acid and was resuspended in ddH2O. Glyphosate was solubilized by addition of KOH until the mixture was at a neutral pH. Assays were initiated by addition of the DGT enzyme at concentrations that varied between 0.01-1 μM. Reactions were terminated by the addition of 235 μL of a 3:1 mixture of malachite green: ammonium molybdate solution. After complete color development (˜1 minute), the absorbance change at 660 nm was recorded and the amount of Pi formed was calculated from a standard curve. […]

[2] = system: T1 Arabidopsis; experiment: Glyphosate tolerance of transformed T1 Arabidopsis, postemergence spray, visual % injury; format: in vivo, Arabidopsis thaliana
Description: Transgenic T1 Arabidopsis plants containing the dgt-28 transgene were sprayed with differing rates of glyphosate. Elevated rates were applied in this study to determine the relative levels of resistance (105, 420, 1,680 or 3,360 g ae/ha). A typical 1× field usage rate of glyphosate is 1120 g ae/ha. The T1 Arabidopsis plants that were used in this study were variable copy number for the dgt-28 transgene. The low copy dgt-28 T1 Arabidopsis plants were self-pollinated and used to produce T2 plants.
The Arabidopsis T1 transformants were first selected from the background of untransformed seed using a glufosinate selection scheme. Three flats or 30,000 seed were analyzed for each T1 construct. The T1 plants selected above were molecularly characterized and the high copy number plants were subsequently transplanted to individual pots and sprayed with various rates of commercial glyphosate as previously described. The response of these plants is presented in terms of % visual injury 2 weeks after treatment (WAT). […] An arithmetic mean and standard deviation is presented for each construct used for Arabidopsis transformation. The range in individual response is also indicated in the last column for each rate and transformation. Wild-type, non-transformed Arabidopsis (c.v. Columbia) served as a glyphosate sensitive control.
T1 plants were sampled and copy number analysis for the dgt-31, dgt-32, and dgt-33 v1 gene were completed. T1 plants were then assigned to various rates of glyphosate so that a range of copies were among each rate. For Arabidopsis, 26.25 g ae/ha glyphosate is an effective dose to distinguish sensitive plants from ones with meaningful levels of resistance. Elevated rates were applied to determine relative levels of resistance (105, 420, 1680, or 3360 g ae/ha).
All glyphosate herbicide applications were made by track sprayer in a 187 L/ha spray volume. Glyphosate used was of the commercial Durango dimethylamine salt formulation (480 g ae/L, Dow AgroSciences, LLC). […]

| Molecule | tolerant to glyphosate at concentrations [1] [mM] | Km [1] [µM] | decrease in catalytic efficiency [1] [fold] | tolerance to glyphosate [2] |
| --- | --- | --- | --- | --- |
| B1 | > 80 | 91.6 | – | – |
| B2 | – | 140 | 100 | significant tolerance; also recorded: robust tolerance |
| B3 | – | 114 | 100 | significant tolerance; also recorded: robust tolerance |
| B4 | – | – | – | slight herbicide tolerance |
